Measurements from patent US20140004175A1 (COMPUGEN, published 2014).

Assays:
[1] = target: T1, recombinant human Ang1 carrier-free (R&D Systems, Cat#923-AN-025/CF) (human, UniProt Q15389 20-498, limits assumed); assay: SPR (BIAcore), Ang1 immobilised on CM5, peptide 0.625-0.039 µM, 1:1 Langmuir fit
T1 construct: Bought recombinant protein; also called angiopoietin 1
T1 sequence: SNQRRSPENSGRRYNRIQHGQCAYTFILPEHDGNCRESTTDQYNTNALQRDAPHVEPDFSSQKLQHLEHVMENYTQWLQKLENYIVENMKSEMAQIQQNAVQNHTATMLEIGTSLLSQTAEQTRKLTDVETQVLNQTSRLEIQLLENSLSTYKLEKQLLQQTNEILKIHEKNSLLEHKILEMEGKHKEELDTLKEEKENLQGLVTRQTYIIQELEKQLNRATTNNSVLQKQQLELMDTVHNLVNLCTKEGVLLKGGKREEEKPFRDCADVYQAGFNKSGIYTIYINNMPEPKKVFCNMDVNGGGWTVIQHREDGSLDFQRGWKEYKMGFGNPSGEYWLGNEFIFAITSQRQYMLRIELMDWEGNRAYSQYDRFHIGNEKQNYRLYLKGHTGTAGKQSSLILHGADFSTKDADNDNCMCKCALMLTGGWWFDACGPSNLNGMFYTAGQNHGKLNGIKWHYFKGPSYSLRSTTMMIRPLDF
Experimental: (§1) Peptide-protein binding was analyzed using surface plasmon resonance. […] Solutions containing 10-50 μM of CGEN-H2 [SEQ ID NO: 1], CGEN-H3 [SEQ ID NO: 2], CGEN-A8 [SEQ ID NO: 3], CGEN-H7 [SEQ ID NO: 4], CGEN-G4 [SEQ ID NO: 5], CGEN-G6 [SEQ ID NO: 6], CGEN-F9 [SEQ ID NO: 7], CGEN-F12 [SEQ ID NO: 8], CGEN-C6 [SEQ ID NO: 9], CGEN-A11 [SEQ ID NO: 10], and CGEN-G2 [SEQ ID NO: 11] peptides were injected into the sample chamber of the BIACORE device at a rate of […] and the interaction was monitored using surface plasmon resonance. […]
(§2) Peptides CGEN-G6 [SEQ ID NO: 6], CGEN-F9 [SEQ ID NO: 7], CGEN-F12 [SEQ ID NO: 8], CGEN-A11 [SEQ ID NO: 10], and CGEN-G2 [SEQ ID NO: 11] were capable of binding to immobilized Ang1, Ang2, and Ang4 on the chip and were further analyzed for binding kinetics, as follows. Solutions containing different concentrations of CGEN-G6 [SEQ ID NO: 6], CGEN-F9 [SEQ ID NO: 7], CGEN-F12 [SEQ ID NO: 8], CGEN-A11 [SEQ ID NO: 10], and CGEN-G2 [SEQ ID NO: 11] peptides (as indicated in Table 2) were injected into the sample chamber of the BIACORE device at a rate of […] and the interaction was monitored using surface plasmon resonance.

[2] = target: T2, recombinant human Ang4 carrier-free (R&D Systems, Cat#964-AN-025/CF) (human, UniProt Q9Y264 25-503, limits assumed); assay: SPR (BIAcore), Ang4 immobilised on CM5, peptide 0.625-0.039 µM, 1:1 Langmuir fit
T2 construct: Bought recombinant protein; also called angiopoietin 4
T2 sequence: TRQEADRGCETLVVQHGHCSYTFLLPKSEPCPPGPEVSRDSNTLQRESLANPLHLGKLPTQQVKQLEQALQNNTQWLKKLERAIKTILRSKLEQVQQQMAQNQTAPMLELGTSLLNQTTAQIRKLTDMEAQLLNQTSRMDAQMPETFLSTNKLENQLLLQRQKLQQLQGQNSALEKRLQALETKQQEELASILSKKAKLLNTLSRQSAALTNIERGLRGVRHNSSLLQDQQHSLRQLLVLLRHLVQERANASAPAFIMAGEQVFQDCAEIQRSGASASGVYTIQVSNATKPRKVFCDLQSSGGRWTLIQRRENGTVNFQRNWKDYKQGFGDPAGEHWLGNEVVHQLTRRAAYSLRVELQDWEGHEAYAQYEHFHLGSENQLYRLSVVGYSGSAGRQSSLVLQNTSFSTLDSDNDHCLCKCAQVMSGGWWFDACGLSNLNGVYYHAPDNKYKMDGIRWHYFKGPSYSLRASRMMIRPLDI
Experimental: as §1, §2

[3] = target: T3, recombinant human Ang2 carrier-free (R&D Systems, Cat#623-AN-025/CF) (human, UniProt O15123 19-496); assay: SPR (BIAcore), Ang2 immobilised on CM5, peptide 0.625-0.039 µM, 1:1 Langmuir fit
T3 construct: Bought recombinant protein; also called angiopoietin 2
T3 sequence: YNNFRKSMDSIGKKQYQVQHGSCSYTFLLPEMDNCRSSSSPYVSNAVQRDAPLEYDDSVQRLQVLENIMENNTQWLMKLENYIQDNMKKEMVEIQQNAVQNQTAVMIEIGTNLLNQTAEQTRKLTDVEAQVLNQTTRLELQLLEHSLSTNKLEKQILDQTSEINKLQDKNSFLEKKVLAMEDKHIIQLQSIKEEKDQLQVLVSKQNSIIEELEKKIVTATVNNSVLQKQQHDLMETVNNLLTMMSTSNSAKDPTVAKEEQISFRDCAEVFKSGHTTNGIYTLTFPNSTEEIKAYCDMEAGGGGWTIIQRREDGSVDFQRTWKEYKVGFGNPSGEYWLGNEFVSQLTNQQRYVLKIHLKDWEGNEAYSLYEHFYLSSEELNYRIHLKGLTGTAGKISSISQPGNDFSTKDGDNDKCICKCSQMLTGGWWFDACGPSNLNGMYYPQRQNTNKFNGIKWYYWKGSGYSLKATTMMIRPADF
Experimental: as §1, §2

[4] = target: T3, recombinant human Ang2 carrier-free …; assay: SPR (BIAcore), Ang2 immobilised on CM5, peptide 25-1.56 µM, 1:1 Langmuir fit
Experimental: as §1, §2

[5] = target: T1, recombinant human Ang1 carrier-free …; assay: SPR (BIAcore), Ang1 immobilised on CM5, peptide 25-1.56 µM, 1:1 Langmuir fit
Experimental: as §1, §2

[6] = target: T1, recombinant human Ang1 carrier-free …; assay: SPR competition (BIAcore), Tie-2/Fc immobilised; Ang1 100-500 nM with peptide 10-50 µM at 1:100
Experimental: Peptide-protein interaction was analyzed using surface plasmon resonance. Analysis of is the interaction between CGEN-G6 [SEQ ID NO: 6], CGEN-F9 [SEQ ID NO: 7], CGEN-C6 [SEQ ID NO: 9], CGEN-A11 [SEQ ID NO: 10], and CGEN-G2 [SEQ ID NO: 11] peptides and recombinant human Tie-2/Fc chimera (carrier-free, R&D Systems, Cat#313-TI, Lot#BKC0707121) was conducted using the BIAcore biosensor (Pharmacia Biosensor, Uppsala, Sweden). The recombinant Tie-2/Fc chimera was immobilized directly to a CM5 sensor chip. Solutions containing 10-50 μM of CGEN-G6 [SEQ ID NO: 6], CGEN-F9 [SEQ ID NO: 7], CGEN-C6 [SEQ ID NO: 9], CGEN-A11 [SEQ ID NO: 10], and CGEN-G2 [SEQ ID NO: 11] were injected into the sample chamber of the BIACORE device at a rate of 20 μl/min and the interaction was monitored using surface plasmon resonance. In addition, solutions containing 100-500 nM of Ang1, Ang2, and Ang4 proteins were injected alone or in combination with 10-50 μM of CGEN-G6 [SEQ ID NO: 6], CGEN-F9 [SEQ ID NO: 7], CGEN-C6 [SEQ ID NO: 9], CGEN-A11 [SEQ ID NO: 10], and CGEN-G2 [SEQ ID NO: 11] peptides at a constant ratio of 1:100 (Ang ligand to peptide) into the sample chamber of the BIACORE device at a rate of 20 μl/min and the interaction was monitored using surface plasmon resonance.
Binding of Ang2 to Tie2 was reduced by 91-100% after incubation with CGEN-G6 [SEQ ID NO: 6] and CGEN-C6 [SEQ ID NO: 9], and to a lesser extent after incubation with CGEN-A11 [SEQ ID NO: 10] and CGEN-F9 [SEQ ID NO: 7] peptides (FIG. 5B). […] Binding of peptides alone to Tie2 was negligible in most cases.

[7] = target: T2, recombinant human Ang4 carrier-free …; assay: SPR (BIAcore), Ang4 immobilised on CM5, peptide 25-1.56 µM, 1:1 Langmuir fit
Experimental: as §1, §2

[8] = target: T3, recombinant human Ang2 carrier-free …; assay: SPR (BIAcore), Ang2 immobilised on CM5, peptide 10-50 µM
Experimental: (§3) Peptide-protein binding was analyzed using surface plasmon resonance. Analysis of the to interaction between CGEN-H2 [SEQ ID NO: 1], CGEN-H3 [SEQ ID NO: 2], CGEN-A8 [SEQ ID NO: 3], CGEN-H7 [SEQ ID NO: 4], CGEN-G4 [SEQ ID NO: 5], CGEN-G6 [SEQ ID NO: 6], CGEN-F9 [SEQ ID NO: 7], CGEN-F12 [SEQ ID NO: 8], CGEN-C6 [SEQ ID NO: 9], CGEN-A11 [SEQ ID NO: 10], and CGEN-G2 [SEQ ID NO: 11] peptides and recombinant human Ang1 carrier-free (R&D Systems, Cat#923-AN-025/CF, Lot#FHW1507031), human Ang2 carrier-free (R&D Systems, Cat#623-AN-025/CF, Lot#BNO0457121), and human Ang4 carrier-free (R&D Systems, Cat#964-AN-025/CF, Lot#ELM025121) was conducted using the BIAcore biosensor (Pharmacia Biosensor, Uppsala, Sweden). The recombinant Ang1, Ang2, and Ang4 were immobilized directly to a CM5 sensor chip. Solutions containing 10-50 μM of CGEN-H2 [SEQ ID NO: 1], CGEN-H3 [SEQ ID NO: 2], CGEN-A8 [SEQ ID NO: 3], CGEN-H7 [SEQ ID NO: 4], CGEN-G4 [SEQ ID NO: 5], CGEN-G6 [SEQ ID NO: 6], CGEN-F9 [SEQ ID NO: 7], CGEN-F12 [SEQ ID NO: 8], CGEN-C6 [SEQ ID NO: 9], CGEN-A11 [SEQ ID NO: 10], and CGEN-G2 [SEQ ID NO: 11] peptides were injected into the sample chamber of the BIACORE device at a rate of […] and the interaction was monitored using surface plasmon resonance. […] Binding of CGEN-C6 to Ang2 was not sufficiently strong and too noisy for kinetic measurements or determination of affinity constant.

[9] = target: T2, recombinant human Ang4 carrier-free …; assay: SPR (BIAcore), Ang4 immobilised on CM5 chip, peptide injected
Experimental: as §3

[10] = target: T1, recombinant human Ang1 carrier-free …; assay: SPR (BIAcore), Ang1 immobilised on CM5, peptide 1.25-0.039 µM, 1:1 Langmuir fit
Experimental: as §1, §2

[11] = target: T3, recombinant human Ang2 carrier-free …; assay: SPR (BIAcore), Ang2 immobilised on CM5
Experimental: as §3

[12] = target: T2, recombinant human Ang4 carrier-free …; assay: SPR (BIAcore), Ang4 immobilised on CM5, peptide 1.25-0.039 µM, 1:1 Langmuir fit
Experimental: as §1, §2

B1: CGEN-F12 (SEQ ID NO: 8) (peptide)
peptide: Ac-QHSLRQLLVLLRHLVQERANASA-NH2
notes: MW 2694.3
Binder B1 has a Kd [1] of 1.88 nM, a Kd [2] of 0.243 nM and a Kd [3] of 5840 nM.

B2: CGEN-A11 (SEQ ID NO: 10) (peptide)
peptide: Ac-ETFLSTNKLENQ-NH2
notes: MW 1464.7
For B2, the Kd [4] was 2360 nM, the Kd [5] was 6740 nM and the “reduction of Ang1 binding to Tie2” value [6] was at most 34%. It also gave a Kd [7] of 3690 nM.

B3: CGEN-G2 (SEQ ID NO: 11) (peptide)
peptide: Ac-TQQVKQLEQALQNNTQWLKKLERAIKTIL-NH2
With B3 the Kd [1] was 17.4 nM, the Kd [2] was 25 nM and the Kd [3] was 56.6 nM.

B4: CGEN-C6 (SEQ ID NO: 9) (peptide)
peptide: Ac-TDMEAQLLNQTSRMDAQM-NH2
notes: MW 2124.5
For B4, the binding result [8] was “binds”, the “reduction of Ang1 binding to Tie2” value [6] was at most 34% and the binding result [9] was “no binding (tested: 10-50 µM)”.

B5: CGEN-G6 (SEQ ID NO: 6) (peptide)
peptide: Ac-DLMETVNNLLTMMSTSNSAKD-NH2
notes: MW 2356.8
For B5, the “reduction of Ang1 binding to Tie2” value [6] was at most 34%, the Kd [10] was 13.3 nM and the binding result [11] was “binds”. The Kd [12] was 22.1 nM.

B6: CGEN-F9 (SEQ ID NO: 7) (peptide)
peptide: Ac-QEELASILSKKAKLLNTLSRQSAALTNIERGLRGVR-NH2
notes: MW 4006.8
For B6, the Kd [4] was 3070 nM, the Kd [5] was 21400 nM and the “reduction of Ang1 binding to Tie2” value [6] was at most 34%. The Kd [7] was 2820 nM.
